The values below come from US20250043017A1.

The assay has as its target human 4-1BB expressed with a C-terminal myc-myc-hexahistidine tag (h4-1BB.mmH) (human). Description: blocking ELISA, 0.25 nM h4-1BB-mmh binding to coated 6His-Flag-h4-1BBL. A general note: ELISA stands for enzyme-linked immunosorbent assay.

human 4-1BB expressed with a C-terminal myc-myc-hexahistidine tag (h4-1BB.mmH) (human), sequence (chain, as listed by the source limits assumed): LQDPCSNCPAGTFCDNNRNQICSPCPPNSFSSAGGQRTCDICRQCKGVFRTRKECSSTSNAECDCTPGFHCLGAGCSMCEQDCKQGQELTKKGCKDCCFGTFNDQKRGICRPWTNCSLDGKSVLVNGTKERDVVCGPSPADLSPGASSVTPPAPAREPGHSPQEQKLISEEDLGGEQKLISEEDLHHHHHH

Isotype Control 1 (antibody): the % Blocking at 100 nM mAb is -8%.

For Isotype Control 2 (antibody), the % Blocking at 100 nM mAb is -11%.
